2 molecules from US11835506 (RADIUS HEALTH, dated 2023) can be followed below.

This test has as its target PTH receptors. As to the kind of experiment: cell-based or functional assay.

B1: (beta-Asp10) abaloparatide ([b-Asp10, Glu22,25, Leu23,28,31, Aib29, Lys26,30]hPTHrP(1-34)NH2) (peptide)
peptide: AVSEHQLLHXKGKSIQDLRRRELLEKLLXKLHTA
modifications: beta-Asp at position 10; Aib (2-aminoisobutyric acid) at position 29; C-terminal amide (NH2)
With B1, the “EC50, production of cAMP in a cell base potency assay for functional PTH activity” value turned out to be 3.3 ng/mL.

B2: abaloparatide ([Glu22,25, Leu23,28,31, Aib29, Lys26,30]hPTHrP(1-34)NH2) (peptide)
peptide: AVSEHQLLHDKGKSIQDLRRRELLEKLLXKLHTA
modifications: Aib (2-aminoisobutyric acid) at position 29; C-terminal amide (NH2)
Take B2: the “EC50, production of cAMP in a cell base potency assay for functional PTH activity” value came out at 0.325 ng/mL.
